13 substances from US20260273042A1 can be followed below.

As a reminder, the Kd is the free concentration of one partner at which half of the binding sites on the other are occupied at equilibrium, for simple one-to-one binding. The term EC50 (read off the curve) denotes the concentration giving half of the maximal effect. Higher therefore signals a need for much substance.

In assay [1] the target is BG505 MD37. The assay is described as follows: SPR (ligand and analyte not given).
The target in assay [2] is BG505 MD39C. The assay is described as follows: SPR (ligand and analyte not given).
The target of assay [3] is BG505_SOSIP_D664_MD39_mC (BG505 SOSIP-MD39 or MD39) (HIV (strain BG505)). Briefly: SPR (ligand and analyte not given).
The target in assay [4] is BG505_SOSIP_D664_olio6_mC (HIV (strain BG505)). The assay is described as follows: SPR (ligand and analyte not given).
The target of assay [5] is BG505_SOSIP_D664_MD39_mC (BG505 SOSIP-MD39 or MD39) (HIV (strain BG505)). Briefly: SPR, trimer ligand, Fab analyte [panel A]. Background: In SPR one partner is held on a chip, and binding of the other changes the refractive index at the surface.
For assay [6], the target named is BG505_SOSIP_D664_olio6_mC (HIV (strain BG505)). Briefly: SPR, trimer ligand, Fab analyte [panel A].
The target of assay [7] is CD4 on human CD4+ T cells (human) (UniProt P01730). The assay is described as follows: flow cytometry, human CD4+ T cells stained with trimer labelled with two fluorescent probes.
Assay [8] concerns the target BG505 SOSIP T332N gp140 (soluble trimer) (HIV (strain BG505)). Briefly: SPR, monovalent interaction.
Assay [9] concerns the target BG505_SOSIP_D664_MD39_mC (BG505 SOSIP-MD39 or MD39) (HIV (strain BG505)). Briefly: SPR, monovalent interaction.
Assay [10] addresses BG505 SOSIP T332N gp140 (soluble trimer) (HIV (strain BG505)). Briefly: SPR, IgG ligand, trimer analyte [panel A].
For assay [11], the target named is BG505_SOSIP.D664_JS_10mut_mC (SOSIP-10MUT) (HIV (strain BG505)). The assay is described as follows: SPR, IgG ligand, trimer analyte [panel A].
Assay [12] has as its target BG505_SOSIP.D664_JS_3mut_mC (SOSIP-3MUT) (HIV (strain BG505)). The assay is described as follows: SPR, IgG ligand, trimer analyte [panel A].
Assay [13] deals with BG505_SOSIP.D664_JS_5mut_mC (SOSIP-5MUT) (HIV (strain BG505)). The assay is described as follows: SPR, IgG ligand, trimer analyte [panel A].
Assay [14] deals with MD39-10MUT. Briefly: SPR, IgG ligand, trimer analyte [panel A].
Assay [15] addresses BG505 SOSIP T332N gp140 (soluble trimer) (HIV (strain BG505)). Briefly: SPR, IgG ligand, trimer analyte [panel A]. The source holds these as a separate data set.
Assay [16] addresses BG505_SOSIP_D664_MD39_mC (BG505 SOSIP-MD39 or MD39) (HIV (strain BG505)). The assay is described as follows: SPR, IgG ligand, trimer analyte [panel A].
For assay [17], the target named is BG505 MD53. The assay is described as follows: SPR (ligand and analyte not given).
Assay [18] has as its target BG505 SOSIP T332N gp140 (soluble trimer) (HIV (strain BG505)). The assay is described as follows: SPR (ligand and analyte not given).
For assay [19] the target is unchanged. Briefly: ELISA, His-tagged trimer captured, mAb titrated [panel B]. (In general: ELISA stands for enzyme-linked immunosorbent assay.)
Assay [20] concerns the target BG505_SOSIP.D664_JS_10mut_mC (SOSIP-10MUT) (HIV (strain BG505)). The assay is described as above.
Assay [21] has as its target BG505_SOSIP_D664_MD39_mC (BG505 SOSIP-MD39 or MD39) (HIV (strain BG505)). The assay is described as above.
Assay [22] addresses BG505-gp120 9MUTB (7MUT+N135R/Q328M) (HIV (strain BG505)). Briefly: SPR, monomeric gp120.
The target of assay [23] is BG505 SOSIP MD39 E2p (HIV (strain BG505) fused to Bacillus stearothermophilus E2p). The assay is described as follows: SPR, captured particle, Fab analyte.
Assay [24] has as its target BG505_SOSIP_MD39_2JD6 (HIV (strain BG505) fused to Pyrococcus furiosus ferritin). The assay is described as follows: SPR, captured particle, Fab analyte.
Assay [25] concerns the target BG505 SOSIP T332N gp140 (soluble trimer) (HIV (strain BG505)). Briefly: SPR, trimer ligand, Fab analyte [panel A].
Assay [26] deals with BG505_SOSIP.D664_JS_10mut_mC (SOSIP-10MUT) (HIV (strain BG505)). Briefly: SPR, trimer ligand, Fab analyte [panel A].
For assay [27], the target named is BG505_SOSIP.D664_JS_3mut_mC (SOSIP-3MUT) (HIV (strain BG505)). The assay is described as follows: SPR, trimer ligand, Fab analyte [panel A].
The target in assay [28] is BG505_SOSIP.D664_JS_5mut_mC (SOSIP-5MUT) (HIV (strain BG505)). Briefly: SPR, trimer ligand, Fab analyte [panel A].
For assay [29], the target named is BG505_SOSIP_D664_MD39_mC (BG505 SOSIP-MD39 or MD39) (HIV (strain BG505)). Briefly: SPR, trimer ligand, Fab analyte [panel A]. This is another data set of the same source.
Assay [30] has as its target MD39-10MUT. Briefly: SPR, trimer ligand, Fab analyte [panel A].
For assay [31], the target named is BG505_SOSIP_D664_olio6_mC (HIV (strain BG505)). The assay is described as follows: SPR, IgG ligand, trimer analyte [panel A].
For assay [32], the target named is BG505_MD39_CP1.2_GRSF7_qLoops1 (HIV (strain BG505)). Briefly: SPR, Fab analyte.
Assay [33] deals with BG505_SOSIP.D664_JS_10mut_mC (SOSIP-10MUT) (HIV (strain BG505)). The assay is described as follows: SPR, trimer ligand, Fab analyte (1-to-1 fit relatively poor) [panel A].
Assay [34] deals with BG505_SOSIP.D664_JS_3mut_mC (SOSIP-3MUT) (HIV (strain BG505)). The assay is described as above.
Assay [35] concerns the target BG505_SOSIP_D664_MD39_mC (BG505 SOSIP-MD39 or MD39) (HIV (strain BG505)). The assay is described as above.

With 3BNC60 (antibody), the Kd was found to be 189 nM in assay [1], 144 nM in assay [2], 121 nM in assay [3] and 119 nM in assay [4].

As to 3BNC60 Fab, the Kd in [5] amounted to 189 nM; in assay [6], 119 nM.

“BG505 SOSIP T332N gp140 (soluble trimer) (other; other documents disagree on this pair)” displayed a percentage of cells in the double-positive population in [7] of 99.1%.

Consider PGDM1400 (antibody), for which the Kd amounted to 5 nM in assay [8]; 36 nM in [9]; 2 nM in [10]; 1 nM in [11]; 1 nM in assay [12]; 1 nM in [13]. The Kd worked out at 6 nM in assay [14]; 6 nM in assay [15]; 12 nM in [16]; 11 nM in assay [17]; 6 nM in assay [18]; 12 nM in [3]. Moreover, the EC50 (read off the curve) in assay [19], in assay [20] and in assay [21] was 0.04 µg/mL throughout.

The substance PGT121 (antibody) had an equilibrium dissociation constant (Kd) in assay [22] of 1.5 nM.

Consider PGT128 (antibody), for which the Kd was 8 nM in assay [8]; 12 nM in assay [9]; 19 nM in assay [1]; 14 nM in assay [2]; 11 nM in [4].

As for PGT128 Fab, the dissociation constant (Kd) in [23] was 6 nM; in [24], 5 nM; in assay [25], 8 nM; in assay [26], 3 nM; in assay [27], 3 nM; in assay [28], 5 nM. The Kd in [29] came out at 12 nM; in [30], 3 nM; in assay [5] it was 11 nM.

On to PGT145 (antibody), for which the Kd in [9] was found to be 60 nM; in assay [11], 3 nM; in assay [12], 3 nM; in assay [13], 3 nM; in assay [16], 20 nM; in [31], 31 nM. Further, the Kd in assay [3] came to 20 nM; in [4], 31 nM.

Consider PGT145-Fab, for which the equilibrium dissociation constant (Kd) came to 26 nM in [32], 41 nM in [23] and 49 nM in assay [24].

PGT151 (antibody): the equilibrium dissociation constant (Kd) in assay [9] and in assay [3] was 11 nM throughout. In addition, the EC50 (read off the curve) in assay [20] and in assay [21] was 0.03 µg/mL each time.

With PGT151 Fab, the Kd in assay [23] stood at 25 nM; in assay [24], 49 nM; in [5], 11 nM; in assay [33], 20 nM; in assay [34], 9 nM; in [35] it was 11 nM.

VRC01 (antibody): the Kd in [9] and in assay [3] was 124 nM throughout.

For the substance VRC01-Fab, the equilibrium dissociation constant (Kd) in [23] was below 1 nM; in assay [24], below 1 nM; in assay [26] it was 115 nM; in [27], 101 nM; in assay [28], 195 nM; in assay [30] it was 142 nM. Moreover, the equilibrium dissociation constant (Kd) in assay [5] is 124 nM.
